For the data set, the target named is T1, octanoyl-ACP (octanoyl-acyl carrier protein, E. coli K12 MG1655 ACP), P0A6A8.
T1 chain: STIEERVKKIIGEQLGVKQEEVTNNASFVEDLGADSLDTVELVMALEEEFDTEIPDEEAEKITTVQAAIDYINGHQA

B1: CpFatB1.2-M4 (ΔA54, N28S, I65M) (protein)
chain: MGSSHHHHHHSSENLYFQGGGGYAAHRDYHRVRCAGKRWTMFDRKSKRPSMLMDSFGLERVVQDGLVFRQSFSIRSYEICADRTASMETVMNHVQETSLNQCKSIGLLDDGFGRSPEMCKRDLIWVVTRMKIMVNRYPTWGDTIEVSTWLSQSGKIGMGRDWLISDCNTGEILVRATSVYAMMNQKTRRFSKLPHEVRQEFAPHFLDSPPAIEDNDGKLQKFDVKTGDSIRKGLTPGWYDLDVNQHVSNVKYIGWILESMPTEVLETQELCSLTLEYRRECGRDSVLESVTSMDPSKVGDRFQYRHLLRLEDGADIMKGRTEWRPKNAGTNGAISTGKT
With B1, the “Km (DTNB thioesterase assay)” value is listed as “the Km remained relatively low” and the “Vmax (DTNB thioesterase assay), fold relative to CpFatB1.2” value is 15.7 fold increase in Vmax over CpFatB1.2.

Values taken from patent US12060598.
